Laboratory results reported in FireProtDB (doi:10.1007/s11095-019-2705-5).

Conditions: Homo sapiens, Thermal, fluorescence, whole UniProt chain shown

B1: Bone morphogenetic protein 2 wild type, P12643 (protein)
chain: MVAGTRCLLALLLPQVLLGGAAGLVPELGRRKFAAASSGRPSSQPSDEVLSEFELRLLSMFGLKQRPTPSRDAVVPPYMLDLYRRHSGQPGSPAPDHRLERAASRANTVRSFHHEESLEELPETSGKTTRRFFFNLSSIPTEEFITSAELQVFREQMQDALGNNSSFHHRINIYEIIKPATANSKFPVTRLLDTRLVNQNASRWESFDVTPAVMRWTAQGHANHGFVVEVAHLEEKQGVSKRHVRISRSLHQDEHSWSQIRPLLVTFGHDGKGHPLHKREKRQAKHKQRKRLKSSCKRHPLYVDFSDVGWNDWIVAPPGYHAFYCHGECPFPLADHLNSTNHAIVQTLVNSVNSKIPKACCVPTELSAISMLYLDENEKVVLKNYQDMVVEGCGCR
pH 2, Citrate
  Tm: 33 °C
pH 3, Citrate
  Tm: 41 °C
pH 4.5, Acetate
  Tm: 53 °C
pH 4.5, Malonate
  Tm: 63 °C
pH 5, Acetate
  Tm: 55 °C
pH 6, MES
  Tm: 62 °C
pH 7, MOPS
  Tm: 63 °C
pH 8.5, Tris
  Tm: 61 °C
pH 10, phosphate
  Tm: 59 °C
pH 10.5, CAPS
  Tm: 52 °C
pH 11, CAPS
  Tm: 32 °C
